Source: patent publication US20240132578A1

Tests used:
Assay in all cases: cell-based or functional assay
[1] = target: HIV-1 Env of isolate MG RM-A-005 (pseudovirus) (HIV-1)
[2] = target: HIV-1 Env of isolate MGRM-G-025 (subtype G) (HIV-1)
[3] = target: HIV-1 Env of isolate 98CN009 (HIV-1)
[4] = target: HIV-1 Env of isolate MGRM-D-004 (HIV-1)
[5] = target: HIV-1 Env of isolate MG RM-A-008 (pseudovirus) (HIV-1)
[6] = target: HIV-1 Env of isolate 92UG024 (HIV-1)
[7] = target: HIV-1 Env of isolate MGRM-C-027 (subtype C), on pseudovirus (HIV-1)
[8] = target: HIV-1 Env of pseudovirus isolate MGRM-Chronic-B-004 (clade B) (HIV-1)
[9] = target: HIV-1 Env of pseudovirus MGRM-F1-004 (HIV-1)
[10] = target: HIV-1 envelope glycoprotein (Env) of isolate MG RM-AG-011 (HIV-1)
[11] = target: HIV-1 envelope glycoprotein (Env) of isolate MG RM-AG-008 (HIV-1)
[12] = target: HIV-1 Env of pseudovirus MGRM-D-013 (HIV-1)
[13] = target: HIV-1 Env of pseudovirus MGRM-F1-022 (HIV-1)
[14] = target: HIV-1 Env of pseudovirus MGRM-D-014 (HIV-1)
[15] = target: HIV-1 Env of pseudovirus MGRM-F1-023 (HIV-1)
[16] = target: HIV-1 Env of isolate MGRM-AG-009 (subtype AG) (HIV-1)
[17] = target: HIV-1 Env of isolate MGRM-AG-001 (subtype AG) (HIV-1)
[18] = target: HIV-1 Env of isolate MGRM-AE-006 (subtype AE) (HIV-1)
[19] = target: HIV-1 Env of isolate MGRM-AG-006 (subtype AG) (HIV-1)
[20] = target: HIV-1 Env of isolate MGRM-D-012 (pseudovirus) (HIV-1)
[21] = target: HIV-1 Env of isolate MGRM-A-013 (subtype A) (HIV-1)
[22] = target: HIV-1 Env of isolate VLGCA1 (subtype A) (HIV-1)
[23] = target: HIV-1 Env of isolate MGRM-Chronic-B-003 (HIV-1)
[24] = target: HIV-1 Env of isolate MGRM-D-016 (pseudovirus) (HIV-1)
[25] = target: HIV-1 Env of isolate 92TH021 (subtype AE) (HIV-1)
[26] = target: aMLV envelope protein on pseudovirus (negative control)
[27] = target: HIV-1 envelope glycoprotein (Env) of isolate MG RM-A-012, subtype A (HIV-1)
[28] = target: HIV-1 Env of isolate MGRM-AE-008 (pseudovirus) (HIV-1)
[29] = target: HIV-1 envelope glycoprotein (Env) of isolate 92WR021, subtype A (HIV-1)
[30] = target: HIV-1 Env of isolate MGRM-AG-008 (pseudovirus) (HIV-1)
[31] = target: HIV-1 MGRM-A-010 Env (HIV-1)
[32] = target: HIV-1 Env of isolate 92UG001 (clade D pseudovirus) (HIV-1)
[33] = target: HIV-1 APV-17 envelope (Env) on pseudovirus (HIV-1)
[34] = target: HIV-1 MGRM-AE-006 Env (pseudovirus) (HIV-1)
[35] = target: HIV-1 envelope glycoprotein (Env) of isolate MGRM-C-010 (HIV-1)
[36] = target: HIV-1 Env of isolate MGRM-D-028 (clade D pseudovirus) (HIV-1)
[37] = target: HIV-1 IAVI-C3 envelope (Env) on pseudovirus (HIV-1)
[38] = target: HIV-1 Env of isolate CAAN.A2 (Acute), clade B (HIV-1)
[39] = target: HIV-1 Env of isolate MGRM-D-013 (clade D pseudovirus) (HIV-1)
[40] = target: HIV-1 envelope glycoprotein (Env) of isolate MGRM-C-005 (HIV-1)
[41] = target: HIV-1 Env of isolate APV_17, clade B (HIV-1)
[42] = target: HIV-1 JR-CSF Env N301A (HIV-1 (isolate JR-CSF, clade B)) (UniProt P20871)

Chain of PGT-144 (4970_K22) (antibody) (VH): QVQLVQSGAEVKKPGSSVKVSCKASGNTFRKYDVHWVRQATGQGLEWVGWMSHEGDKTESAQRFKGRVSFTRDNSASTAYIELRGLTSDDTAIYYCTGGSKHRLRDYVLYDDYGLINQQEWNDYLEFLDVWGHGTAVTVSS
Chain of PGT-144 (4970_K22) (antibody) (VL): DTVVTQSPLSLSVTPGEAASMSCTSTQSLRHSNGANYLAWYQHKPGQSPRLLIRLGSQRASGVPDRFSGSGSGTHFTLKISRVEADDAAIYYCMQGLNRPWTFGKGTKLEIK
Chain of PGT-143 (4980_N08) (antibody) (VH): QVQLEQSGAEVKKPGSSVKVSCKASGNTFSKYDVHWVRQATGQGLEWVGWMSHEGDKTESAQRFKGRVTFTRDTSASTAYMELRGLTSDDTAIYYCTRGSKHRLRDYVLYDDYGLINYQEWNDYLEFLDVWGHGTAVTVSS
Chain of PGT-143 (4980_N08) (antibody) (VL): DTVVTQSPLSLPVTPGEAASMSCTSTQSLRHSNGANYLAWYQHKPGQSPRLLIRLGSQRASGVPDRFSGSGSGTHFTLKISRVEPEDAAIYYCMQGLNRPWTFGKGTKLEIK
Chain of 5329_C19 (PGT-136) (antibody) (VH): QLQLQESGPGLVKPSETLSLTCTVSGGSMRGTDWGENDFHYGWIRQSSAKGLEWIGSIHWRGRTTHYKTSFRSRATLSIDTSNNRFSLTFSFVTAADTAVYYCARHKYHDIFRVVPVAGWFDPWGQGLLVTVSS
Chain of 5329_C19 (PGT-136) (antibody) (VL): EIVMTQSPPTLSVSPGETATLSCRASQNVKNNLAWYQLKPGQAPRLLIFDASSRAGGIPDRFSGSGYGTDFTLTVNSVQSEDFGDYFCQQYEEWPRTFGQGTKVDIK
Chain of 4993_K13 (PGT-141) (antibody) (VH): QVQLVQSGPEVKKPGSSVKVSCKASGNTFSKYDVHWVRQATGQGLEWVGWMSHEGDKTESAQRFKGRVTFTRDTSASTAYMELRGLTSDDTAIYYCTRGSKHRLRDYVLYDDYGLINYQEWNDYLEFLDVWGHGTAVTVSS
Chain of 4993_K13 (PGT-141) (antibody) (VL): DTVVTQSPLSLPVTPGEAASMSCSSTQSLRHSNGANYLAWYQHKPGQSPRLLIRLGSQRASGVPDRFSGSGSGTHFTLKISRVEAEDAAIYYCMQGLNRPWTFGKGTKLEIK
Chain of 5345_I01 (PGT-137) (antibody) (VH): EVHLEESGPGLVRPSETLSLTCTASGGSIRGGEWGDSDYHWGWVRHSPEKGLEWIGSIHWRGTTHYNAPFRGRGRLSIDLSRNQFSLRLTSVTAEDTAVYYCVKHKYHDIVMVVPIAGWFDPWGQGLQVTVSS
Chain of 5345_I01 (PGT-137) (antibody) (VL): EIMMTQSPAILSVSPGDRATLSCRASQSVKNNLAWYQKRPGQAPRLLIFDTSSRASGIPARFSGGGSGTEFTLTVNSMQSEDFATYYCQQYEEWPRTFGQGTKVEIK
Chain of 4995_P16 (PGT-145) (antibody) (VH): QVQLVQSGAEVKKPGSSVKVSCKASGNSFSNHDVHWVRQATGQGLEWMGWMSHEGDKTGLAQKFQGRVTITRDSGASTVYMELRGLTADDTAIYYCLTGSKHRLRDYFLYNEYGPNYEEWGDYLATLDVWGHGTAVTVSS
Chain of 4995_P16 (PGT-145) (antibody) (VL): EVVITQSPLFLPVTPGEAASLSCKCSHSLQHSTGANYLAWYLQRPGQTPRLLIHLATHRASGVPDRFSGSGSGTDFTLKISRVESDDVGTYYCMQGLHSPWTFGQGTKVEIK
Chain of 4995_E20 (PGT-142) (antibody) (VH): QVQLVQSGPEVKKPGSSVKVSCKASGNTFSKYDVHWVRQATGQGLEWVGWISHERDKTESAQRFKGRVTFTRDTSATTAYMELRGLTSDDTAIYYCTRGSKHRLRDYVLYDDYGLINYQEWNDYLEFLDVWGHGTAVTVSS

Substance | IC50 (µg/mL), single-round pseudovirus neutralization [1] [µg/mL] | IC50 (µg/mL), pseudovirus neutralization [2] [µg/mL] | IC50 (µg/mL), pseudovirus neutralization [3] [µg/mL] | IC50 (µg/mL), pseudovirus neutralization [4] [µg/mL] | IC50 (µg/mL), single-round pseudovirus neutralization [5] [µg/mL] | IC50 (µg/mL), pseudovirus neutralization [6] [µg/mL] | IC50, single-round pseudovirus neutralization [7] [µg/mL] | IC50, pseudovirus neutralization [8] [µg/mL] | IC50, pseudovirus neutralization [9] [µg/mL] | IC50 [10] [µg/mL] | IC50 [11] [µg/mL] | IC50, pseudovirus neutralization [12] [µg/mL] | IC50, pseudovirus neutralization [13] [µg/mL] | IC50, pseudovirus neutralization [14] [µg/mL] | IC50, pseudovirus neutralization [15] [µg/mL] | other results
4995_P16 (PGT-145) (antibody) | 0.128 | > 50 | 0.136 | 10.9 | > 50 | 1.6 | 0.095 | 0.023 | – | – | – | – | – | – | – | –
PGT-141 (4964_G22; 4993_K13) (antibody) | – | – | – | – | – | – | – | – | 0.021 | 0.118 | 19.2 | 0.179 | 0.114 | 0.01 | 0.307 | –
4970_K22 (PGT-144) (antibody) | 18.6 | > 50 | > 50 | > 50 | > 50 | > 50 | > 50 | 9.41 | – | – | – | – | – | – | – | –
5345_I01 (PGT-137) (antibody) | – | – | – | – | – | – | – | – | – | – | – | – | – | – | – | IC50, pseudovirus neutralization [16]: > 50 µg/mL; IC50, pseudovirus neutralization [17]: > 50 µg/mL; IC50, pseudovirus neutralization [18]: > 50 µg/mL; IC50, pseudovirus neutralization [19]: 28.3 µg/mL; IC50 (µg/mL), pseudovirus neutralization [20]: > 50 µg/mL; IC50, pseudovirus neutralization [21]: 49.2 µg/mL; IC50, pseudovirus neutralization [22]: > 50 µg/mL; IC50 (µg/mL), pseudovirus neutralization [23]: > 50 µg/mL; IC50 (µg/mL), pseudovirus neutralization [24]: > 50 µg/mL; IC50, pseudovirus neutralization [25]: > 50 µg/mL
PGT-142 (4995_E20) (antibody) | – | – | – | – | – | – | – | – | 0.013 | 0.081 | 12.1 | 0.221 | 0.04 | 0.005 | 0.602 | –
5329_C19 (PGT-136) (antibody) | – | – | – | – | – | – | – | – | – | – | – | – | – | – | – | IC50, pseudovirus neutralization [16]: > 50 µg/mL; IC50, pseudovirus neutralization [17]: > 50 µg/mL; IC50, pseudovirus neutralization [18]: > 50 µg/mL; IC50, pseudovirus neutralization [19]: 29.1 µg/mL; IC50 (µg/mL), pseudovirus neutralization [20]: > 50 µg/mL; IC50, pseudovirus neutralization [21]: > 50 µg/mL; IC50, pseudovirus neutralization [22]: > 50 µg/mL; IC50 (µg/mL), pseudovirus neutralization [23]: > 50 µg/mL; IC50 (µg/mL), pseudovirus neutralization [24]: > 50 µg/mL; IC50 (ug/mL), pseudovirus neutralization [26]: > 10 µg/mL; IC50, pseudovirus neutralization [25]: > 50 µg/mL
4877_D15 (PGT-122) (antibody) | – | – | – | – | – | – | – | – | – | – | – | – | – | – | – | IC50, pseudovirus neutralization [27]: 0.257 µg/mL; IC50 (µg/mL), pseudovirus neutralization [28]: > 50 µg/mL; IC50, pseudovirus neutralization [29]: 0.021 µg/mL; IC50 (µg/mL), pseudovirus neutralization [30]: > 50 µg/mL; IC50, pseudovirus neutralization [31]: 1.68 µg/mL; IC50 (ug/mL), pseudovirus neutralization [26]: > 10 µg/mL
PGT-145 (4995_P16) (antibody) | – | – | – | – | – | – | – | – | 0.361 | 0.003 | 0.244 | 3.48 | 0.009 | 2.51 | 5.88 | –
5343_B08 (PGT-135) (antibody) | – | – | – | – | – | – | – | – | – | – | – | – | – | – | – | IC50, pseudovirus neutralization [16]: > 50 µg/mL; IC50, pseudovirus neutralization [17]: > 50 µg/mL; IC50, pseudovirus neutralization [18]: > 50 µg/mL; IC50, pseudovirus neutralization [19]: 17.9 µg/mL; IC50 (µg/mL), pseudovirus neutralization [20]: > 50 µg/mL; IC50, pseudovirus neutralization [21]: > 50 µg/mL; IC50, pseudovirus neutralization [22]: > 50 µg/mL; IC50 (µg/mL), pseudovirus neutralization [23]: > 50 µg/mL; IC50 (µg/mL), pseudovirus neutralization [24]: > 50 µg/mL; IC50 (ug/mL), pseudovirus neutralization [26]: > 10 µg/mL; IC50, pseudovirus neutralization [25]: > 50 µg/mL
4995_E20 (PGT-142) (antibody) | 9.7 | > 50 | 4 | > 50 | > 50 | > 50 | 0.792 | 0.172 | – | – | – | – | – | – | – | –
PGT-143 (4980_N08) (antibody) | – | – | – | – | – | – | – | – | 0.036 | 0.156 | 34 | 0.386 | 0.082 | 0.009 | 0.972 | –
PGT-144 (4970_K22) (antibody) | – | – | – | – | – | – | – | – | 0.105 | 44.6 | > 50 | > 50 | 0.382 | 0.113 | 1.16 | –
VRC01 (antibody) | 0.095 | 0.292 | 0.346 | 1.25 | 0.303 | 0.576 | 0.125 | 0.055 | 0.305 | 0.084 | 0.124 | 0.087 | 0.055 | 0.332 | 0.392 | –
4980_N08 (PGT-143) (antibody) | 7.48 | > 50 | 10.2 | > 50 | > 50 | > 50 | 0.598 | 0.395 | – | – | – | – | – | – | – | –
1496_C09 (PG9) (TCN-109) (antibody) | – | – | – | – | – | – | – | – | – | – | – | – | – | – | – | IC50, pseudovirus neutralization [32]: 41.8 µg/mL; IC50 (µg/mL), pseudovirus neutralization [28]: 31.5 µg/mL; neutralization IC50 [33]: 26.4 µg/mL; IC50 (µg/ml), pseudovirus neutralization [34]: 0.05 µg/mL; IC50 (µg/ml), pseudovirus neutralization [35]: 12.4 µg/mL; IC50, pseudovirus neutralization [36]: 4.39 µg/mL; neutralization IC50 [37]: 12.9 µg/mL; IC50, pseudovirus neutralization [31]: 0.0375 µg/mL; IC50 (µg/ml), pseudovirus neutralization [38]: 5.67 µg/mL; IC50, pseudovirus neutralization [39]: 0.06 µg/mL; IC50 (µg/ml), pseudovirus neutralization [40]: 2.98 µg/mL; IC50 (µg/ml), pseudovirus neutralization [41]: 14.6 µg/mL
4993_K13 (PGT-141) (antibody) | 11.1 | > 50 | 1.28 | > 50 | > 50 | > 50 | 3.27 | 0.586 | – | – | – | – | – | – | – | –
PGV04 (antibody) | – | 1.61 | – | – | – | – | – | – | – | – | – | – | – | – | – | IC50 (µg/mL), pseudovirus neutralization [28]: 1.51 µg/mL; IC50 (µg/mL), pseudovirus neutralization [30]: 2.48 µg/mL
5145_B14 (PGT-127) (antibody) | – | – | – | – | – | – | – | – | – | – | – | – | – | – | – | IC50, pseudovirus neutralization [27]: 0.105 µg/mL; IC50 (µg/mL), pseudovirus neutralization [28]: > 50 µg/mL; IC50, pseudovirus neutralization [29]: 0.011 µg/mL; IC50 (µg/mL), pseudovirus neutralization [30]: > 50 µg/mL; Fold IC50 increase relative to wild-type [42]: > 250 fold
4838_L06 (PGT-121) (antibody) | – | – | – | – | – | – | – | – | – | – | – | – | – | – | – | IC50, pseudovirus neutralization [27]: 0.092 µg/mL; IC50, pseudovirus neutralization [29]: 0.009 µg/mL; IC50 (ug/mL), pseudovirus neutralization [26]: > 10 µg/mL
4858_P08 (PGT-123) (antibody) | – | – | – | – | – | – | – | – | – | – | – | – | – | – | – | IC50, pseudovirus neutralization [27]: 0.192 µg/mL; IC50 (µg/mL), pseudovirus neutralization [28]: > 50 µg/mL; IC50, pseudovirus neutralization [29]: 0.005 µg/mL; IC50 (µg/mL), pseudovirus neutralization [30]: 19.2 µg/mL; IC50, pseudovirus neutralization [31]: 0.492 µg/mL; IC50 (ug/mL), pseudovirus neutralization [26]: > 10 µg/mL
